How the values were obtained:
[1] = biological target: N-hCD73-his (N-terminal domain of human CD73, residues 26-336) (human) (UniProt P21589); experiment: DLS, N-hCD73-his:Fab 1:1 (8:8 uM); Rh SD 0.1, %Pd 12.6 (SD 4.7), %Mass 100.0 (SD 0.0)
[2] = biological target: hCD73-his (full length extracellular domain of human CD73, residues 26-546, C-terminal polyhistidine tag) (human) (UniProt P21589); experiment: SEC-MALS, hCD73-his:Fab 1:2 (4:8 uM); peak at ~20.1 min, 7.7 % of UV
[3] = biological target: hCD73-his (full length extracellular domain of human CD73, residues 26-546, C-terminal polyhistidine tag) (human) (UniProt P21589); experiment: SEC-MALS, hCD73-his:Fab 1:2 (4:8 uM); peak at ~12.6 min, 0.9 % of UV
[4] = biological target: hCD73-his (full length extracellular domain of human CD73, residues 26-546, C-terminal polyhistidine tag) (human) (UniProt P21589); experiment: SEC-MALS, hCD73-his:Fab 1:2 (4:8 uM); peak at ~16.8 min, 0.8 % of UV
[5] = biological target: hCD73-his (full length extracellular domain of human CD73, residues 26-546, C-terminal polyhistidine tag) (human) (UniProt P21589); experiment: DLS, hCD73-his:Fab 1:2 (4:8 uM); Rh SD 0.1, %Pd 15.1 (SD 4.3), %Mass 100.0 (SD 0.0)
[6] = biological target: N-hCD73-his (N-terminal domain of human CD73, residues 26-336) (human) (UniProt P21589); experiment: SEC-MALS, N-hCD73-his:Fab 1:1 (8:8 uM); peak at ~20.0 min, 4.7 % of UV
[7] = biological target: hCD73-his (full length extracellular domain of human CD73, residues 26-546, C-terminal polyhistidine tag) (human) (UniProt P21589); experiment: SEC-MALS, hCD73-his:Fab 1:2 (4:8 uM); peak at ~14.7 min, 90.7 % of UV
[8] = biological target: N-hCD73-his (N-terminal domain of human CD73, residues 26-336) (human) (UniProt P21589); experiment: SEC-MALS, N-hCD73-his:Fab 1:1 (8:8 uM); peak at ~17.4 min, 95.3 % of UV
[9] = biological target: hCD73-his (full length extracellular domain of human CD73, residues 26-546, C-terminal polyhistidine tag) (human) (UniProt P21589); experiment: SEC-MALS, hCD73:mAb 1:0.25 (2.5:0.625 uM); peak at ~11.8 min, 42.0 % of UV
[10] = biological target: hCD73-his (full length extracellular domain of human CD73, residues 26-546, C-terminal polyhistidine tag) (human) (UniProt P21589); experiment: SEC-MALS, hCD73:mAb 1:2 (2.5:5 uM); peak at ~17.1 min, 29.3 % of UV
[11] = biological target: hCD73-his (full length extracellular domain of human CD73, residues 26-546, C-terminal polyhistidine tag) (human) (UniProt P21589); experiment: DLS, hCD73:mAb 1:2 (2.5:5 uM); Rh SD 0.1, %Pd 31.3 (SD 5.5), %Mass 68.7 (SD 25.8)
[12] = biological target: hCD73-his (full length extracellular domain of human CD73, residues 26-546, C-terminal polyhistidine tag) (human) (UniProt P21589); experiment: SEC-MALS, hCD73:mAb 1:0.25 (2.5:0.625 uM); peak at ~17.1 min, 36.4 % of UV
[13] = biological target: hCD73-his (full length extracellular domain of human CD73, residues 26-546, C-terminal polyhistidine tag) (human) (UniProt P21589); experiment: SEC-MALS, hCD73:mAb 1:0.5 (2.5:1.25 uM); peak at ~11.7 min, 71.9 % of UV
[14] = biological target: hCD73-his (full length extracellular domain of human CD73, residues 26-546, C-terminal polyhistidine tag) (human) (UniProt P21589); experiment: DLS, hCD73:mAb 1:1 (2.5:[…]); Rh SD 1.0, %Pd 25.1 (SD 2.1), %Mass 22.3 (SD 4.9)
[15] = biological target: hCD73-his (full length extracellular domain of human CD73, residues 26-546, C-terminal polyhistidine tag) (human) (UniProt P21589); experiment: SEC-MALS, hCD73:mAb 1:4 (2.5:10 uM); peak at ~11.7 min, […] of UV
[16] = biological target: N-hCD73-his (N-terminal domain of human CD73, residues 26-336) (human) (UniProt P21589); experiment: SEC-MALS, N-hCD73:mAb 1:1 as printed (5:[…]); peak at ~15.9 min, […] of UV
[17] = biological target: hCD73-his (full length extracellular domain of human CD73, residues 26-546, C-terminal polyhistidine tag) (human) (UniProt P21589); experiment: SEC-MALS, hCD73:mAb 1:2 (2.5:5 uM); peak at ~15.3 min, 0.6 % of UV
[18] = biological target: hCD73-his (full length extracellular domain of human CD73, residues 26-546, C-terminal polyhistidine tag) (human) (UniProt P21589); experiment: SEC-MALS, hCD73:mAb 1:2 (2.5:5 uM); peak at ~13.4 min, 17.7 % of UV
[19] = biological target: N-hCD73-his (N-terminal domain of human CD73, residues 26-336) (human) (UniProt P21589); experiment: SEC-MALS, N-hCD73:mAb 1:1 as printed (5:[…]); peak at ~14.7 min, 88.3 % of UV
[20] = biological target: hCD73-his (full length extracellular domain of human CD73, residues 26-546, C-terminal polyhistidine tag) (human) (UniProt P21589); experiment: SEC-MALS, hCD73:mAb 1:2 (2.5:5 uM); peak at ~11.7 min, 52.5 % of UV
[21] = biological target: hCD73-his (full length extracellular domain of human CD73, residues 26-546, C-terminal polyhistidine tag) (human) (UniProt P21589); experiment: SEC-MALS, hCD73:mAb 1:0.25 (2.5:0.625 uM); peak at ~13.4 min, 21.6 % of UV
[22] = biological target: N-hCD73-his (N-terminal domain of human CD73, residues 26-336) (human) (UniProt P21589); experiment: SEC-MALS, N-hCD73:mAb 1:1 as printed (5:[…]); peak at ~17.0 min, […] of UV
[23] = biological target: hCD73-his (full length extracellular domain of human CD73, residues 26-546, C-terminal polyhistidine tag) (human) (UniProt P21589); experiment: DLS, hCD73:mAb 1:0.25 (2.5:0.625 uM); Rh SD 1.7, %Pd 46.5 (SD 5.9), %Mass 99.9 (SD 0.1)
[24] = biological target: hCD73-his (full length extracellular domain of human CD73, residues 26-546, C-terminal polyhistidine tag) (human) (UniProt P21589); experiment: DLS, hCD73:mAb 1:0.5 (2.5:1.25 uM); Rh SD 1.0, %Pd 31.7 (SD 8.8), %Mass 62.6 (SD 25.8)
[25] = biological target: hCD73-his (full length extracellular domain of human CD73, residues 26-546, C-terminal polyhistidine tag) (human) (UniProt P21589); experiment: SEC-MALS, hCD73:mAb 1:4 (2.5:10 uM); peak at ~15.3 min, 1.2 % of UV
[26] = biological target: N-hCD73-his (N-terminal domain of human CD73, residues 26-336) (human) (UniProt P21589); experiment: DLS, N-hCD73:mAb 1:1 as printed (5:[…]); Rh SD 0.3, %Pd 13.9 (SD 7.0), %Mass 100.0 (SD 0.0)
[27] = biological target: hCD73-his (full length extracellular domain of human CD73, residues 26-546, C-terminal polyhistidine tag) (human) (UniProt P21589); experiment: SEC-MALS, hCD73:mAb 1:4 (2.5:10 uM); peak at ~13.4 min, 16.2 % of UV
[28] = biological target: hCD73-his (full length extracellular domain of human CD73, residues 26-546, C-terminal polyhistidine tag) (human) (UniProt P21589); experiment: SEC-MALS, hCD73:mAb 1:1 (2.5:[…]); peak at ~17.1 min, […] of UV
[29] = biological target: hCD73-his (full length extracellular domain of human CD73, residues 26-546, C-terminal polyhistidine tag) (human) (UniProt P21589); experiment: SEC-MALS, hCD73:mAb 1:0.5 (2.5:1.25 uM); peak at ~17.1 min, 13.4 % of UV
[30] = biological target: hCD73-his (full length extracellular domain of human CD73, residues 26-546, C-terminal polyhistidine tag) (human) (UniProt P21589); experiment: SEC-MALS, hCD73:mAb 1:1 (2.5:[…]); peak at ~11.5 min, 95.3 % of UV
[31] = biological target: hCD73-his (full length extracellular domain of human CD73, residues 26-546, C-terminal polyhistidine tag) (human) (UniProt P21589); experiment: SEC-MALS, hCD73:mAb 1:0.5 (2.5:1.25 uM); peak at ~13.4 min, 15.8 % of UV
[32] = biological target: hCD73-his (full length extracellular domain of human CD73, residues 26-546, C-terminal polyhistidine tag) (human) (UniProt P21589); experiment: DLS, hCD73:mAb 1:4 (2.5:10 uM); Rh SD 0.9, %Pd 42.9 (SD 3.5), %Mass 90.2 (SD 17.5)
[33] = biological target: hCD73-his (full length extracellular domain of human CD73, residues 26-546, C-terminal polyhistidine tag) (human) (UniProt P21589); experiment: SEC-MALS, hCD73:mAb 1:4 (2.5:10 uM); peak at ~17.1 min, 58.6 % of UV
[34] = biological target: N-hCD73-his (N-terminal domain of human CD73, residues 26-336) (human) (UniProt P21589); experiment: SEC-MALS, N-hCD73:mAb 1:1 as printed (5:[…]); peak at ~13.9 min, 0.7 % of UV
[35] = biological target: hCD73-his (full length extracellular domain of human CD73, residues 26-546, C-terminal polyhistidine tag) (human) (UniProt P21589); experiment: SEC-MALS, hCD73:mAb 1:1 (2.5:[…]); peak at ~13.4 min, 1.9 % of UV

Chain of N-hCD73-his (N-terminal domain of human CD73, residues 26-336) (human) (P21589 26-336 limits assumed): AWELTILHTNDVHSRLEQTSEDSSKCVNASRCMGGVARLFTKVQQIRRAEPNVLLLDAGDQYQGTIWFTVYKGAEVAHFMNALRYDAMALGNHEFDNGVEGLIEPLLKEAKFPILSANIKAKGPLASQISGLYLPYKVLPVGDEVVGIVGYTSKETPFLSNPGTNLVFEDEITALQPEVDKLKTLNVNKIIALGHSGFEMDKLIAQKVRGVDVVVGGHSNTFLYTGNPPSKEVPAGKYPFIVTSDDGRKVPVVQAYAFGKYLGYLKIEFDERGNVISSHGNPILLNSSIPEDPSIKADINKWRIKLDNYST
Chain of hCD73-his (full length extracellular domain of human CD73, residues 26-546, C-terminal polyhistidine tag) (human) (P21589 26-546 limits assumed): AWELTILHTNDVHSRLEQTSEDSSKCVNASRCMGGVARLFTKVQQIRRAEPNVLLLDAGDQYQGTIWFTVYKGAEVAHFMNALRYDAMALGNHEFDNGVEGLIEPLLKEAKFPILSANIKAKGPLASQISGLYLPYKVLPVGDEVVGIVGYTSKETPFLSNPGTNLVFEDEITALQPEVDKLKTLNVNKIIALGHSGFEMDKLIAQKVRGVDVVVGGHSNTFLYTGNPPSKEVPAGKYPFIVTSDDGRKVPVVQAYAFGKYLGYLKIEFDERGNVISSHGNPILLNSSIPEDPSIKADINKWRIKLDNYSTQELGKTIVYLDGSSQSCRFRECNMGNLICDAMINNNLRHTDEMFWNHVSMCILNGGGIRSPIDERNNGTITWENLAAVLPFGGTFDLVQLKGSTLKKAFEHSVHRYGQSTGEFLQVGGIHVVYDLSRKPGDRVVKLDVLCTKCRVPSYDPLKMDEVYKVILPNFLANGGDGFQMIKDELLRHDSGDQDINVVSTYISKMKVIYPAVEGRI

B1: 11F11-Fab (Fab, V domains shown, part only)
VH: QVQLVESGGGVVQPGRSLRLSCATSGFTFSNYGMHWVRQAPGKGLEWVAVILYDGSNKYYPDSVKGRFTISRDNSKNTLYLQMNSLRAEDTAVYYCARGGSSWYPDSFDIWGQGTMVTVSS
VL: DIQMTQSPSSLSASVGDRVTITCRASQGISSWLAWYQQKPEKAPKSLIYAASSLQSGVPSRFSGSGSGTDFTLTISSLQPEDFATYYCQQYNSYPLTFGGGTKVEIKR
modifications: CH1 of Fab heavy chain not stated
Q: For B1, which Rh (DLS) [1] is on record?
A: 4.2 nm

Q: What about the MW (kDa) Peak 4 [2] of the same binder?
A: 40 kDa

Q: What about the MW (kDa) Peak 1 [3] of the same binder?
A: 300 kDa

Q: And the MW (kDa) Peak 3 [4]?
A: 85 kDa

Q: And the Rh (DLS) [5]?
A: 6.4 nm

Q: And the MW (kDa) Peak 2 [6]?
A: 44 kDa

Q: What about the MW (kDa) Peak 2 [7] of the same binder?
A: 310 kDa

Q: What about the MW (kDa) Peak 1 [8] of the same binder?
A: 84 kDa

B2: CD73.4-hybrid (antibody, from a related filing, V domains shown, part only)
VH: QVQLVESGGGVVQPGRSLRLSCAASGFTFSNYGMHWVRQAPGKGLEWVAVILYDGSNKYYPDSVKGRFTISRDNSKNTLYLQMNSLRAEDTAVYYCARGGSSWYPDSFDIWGQGTMVTVSS
VL: DIQMTQSPSSLSASVGDRVTITCRASQGISSWLAWYQQKPEKAPKSLIYAASSLQSGVPSRFSGSGSGTDFTLTISSLQPEDFATYYCQQYNSYPLTFGGGTKVEIKR
Q: What does the source list for B2?
A: MW (kDa) Peak 1 [9]: 1200 kDa; MW (kDa) Peak 4 [10]: 140 kDa; Rh (DLS) [11]: 14.4 nm; MW (kDa) Peak 3 [12]: 120 kDa; MW (kDa) Peak 1 [13]: 1900 kDa; Rh (DLS) [14]: 29.9 nm; MW (kDa) Peak 1 [15]: 1300 kDa; MW (kDa) Peak 3 [16]: 180 kDa; MW (kDa) Peak 3 [17]: 220 kDa; MW (kDa) Peak 2 [18]: 500 kDa; MW (kDa) Peak 2 [19]: 210 kDa; MW (kDa) Peak 1 [20]: 1700 kDa; MW (kDa) Peak 2 [21]: 520 kDa; MW (kDa) Peak 4 [22]: 150 kDa; Rh (DLS) [23]: 13.2 nm; Rh (DLS) [24]: 17.5 nm; MW (kDa) Peak 3 [25]: 200 kDa; Rh (DLS) [26]: 6.7 nm; MW (kDa) Peak 2 [27]: 500 kDa; MW (kDa) Peak 3 [28]: 530 kDa; MW (kDa) Peak 3 [29]: 130 kDa; MW (kDa) Peak 1 [30]: 3300 kDa; MW (kDa) Peak 2 [31]: 540 kDa; Rh (DLS) [32]: 11.4 nm; MW (kDa) Peak 4 [33]: 140 kDa; MW (kDa) Peak 1 [34]: 390 kDa; MW (kDa) Peak 2 [35]: 1000 kDa
